Data published in patent publication US20240327544A1.

Molecular target: human FcγRIa expressed on transiently transfected CHO-S cells (human) (UniProt P12314)
Assay: flow cytometry, CHO-S cells transiently expressing human FcγRIa, PE-conjugated goat anti-human IgG F(ab')2, % PE+ cells

Chain of human FcγRIa expressed on transiently transfected CHO-S cells (human) (P12314 16-374): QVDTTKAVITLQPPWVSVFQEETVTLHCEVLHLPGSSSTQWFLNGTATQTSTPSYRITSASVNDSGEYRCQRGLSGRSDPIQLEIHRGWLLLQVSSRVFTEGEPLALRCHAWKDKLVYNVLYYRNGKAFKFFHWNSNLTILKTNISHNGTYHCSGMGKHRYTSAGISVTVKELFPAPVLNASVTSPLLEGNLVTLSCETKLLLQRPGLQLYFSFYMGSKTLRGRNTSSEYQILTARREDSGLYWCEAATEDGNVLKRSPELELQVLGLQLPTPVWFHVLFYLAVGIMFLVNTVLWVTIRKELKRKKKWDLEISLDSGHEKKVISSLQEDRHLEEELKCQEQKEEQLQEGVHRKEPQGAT

EC50 (read off the curve): 0.2 µg/mL
Substance: nivolumab (antibody)
